Measurements taken from paper PMC6447562, “Structures of the wild-type MexAB–OprM tripartite pump reveal its complex formation and drug efflux mechanism” (Nature Communications, 2019).
Substitutions are numbered along the chain they refer to.

B1: MexA (a.a. 2-360) (natural protein)
chain: GKSEAPPPAQTPEVGIVTLEAQTVTLNTELPGRTNAFRIAEVRPQVNGIILKRLFKEGSDVKAGQQLYQIDPATYEADYQSAQANLASTQEQAQRYKLLVADQAVSKQQYADANAAYLQSKAAVEQARINLRYTKVLSPISGRIGRSAVTEGALVTNGQANAMATVQQLDPIYVDVTQPSTALLRLRRELASGQLERAGDNAAKVSLKLEDGSQYPLEGRLEFSEVSVDEGTGSVTIRAVFPNPNNELLPGMFVHAQLQEGVKQKAILAPQQGVTRDLKGQATALVVNAQNKVELRVIKADRVIGDKWLVTEGLNAGDKIITEGLQFVQPGVEVKTVPAKNVASAQKADAAPAKTDSKG
notes: MexA (membrane fusion protein), Pseudomonas aeruginosa, a.a; 2-360, lacks the signal peptide and the first cysteine; numbers count on: the mature protein; Six copies (a hexamer) stand in the assembled MexAB-OprM pump; also called MFP; membrane fusion protein; source: E. coli BL21-RILP(DE3), purified (Ni-NTA, TEV cleavage, Superdex200); not shown: His6, N-terminal, cleaved
B2: MexA L99D (natural protein, Pseudomonas aeruginosa, UniProt P52477 25-383, looked up)
chain: B1 chain with L98D
notes: MexA, Pseudomonas aeruginosa, a.a; 2-360 as m1; numbers count on: the mature protein; source: E. coli, expressed and purified as the wild type; not shown: His6, N-terminal, cleaved
B3: MexA R96A (natural protein, Pseudomonas aeruginosa, UniProt P52477 25-383, looked up)
chain: B1 chain with R95A
notes: as for B2
B4: MexA R96D (natural protein, Pseudomonas aeruginosa, UniProt P52477 25-383, looked up)
chain: B1 chain with R95D
notes: as for B2
B5: OprM, full length (natural protein)
chain: CSLIPDYQRPEAPVAAAYPQGQAYGQNTGAAAVPAADIGWREFFRDPQLQQLIGVALENNRDLRVAALNVEAFRAQYRIQRADLFPRIGVDGSGTRQRLPGDLSTTGSPAISSQYGVTLGTTAWELDLFGRLRSLRDQALEQYLATEQAQRSAQTTLVASVATAYLTLKADQAQLQLTKDTLGTYQKSFDLTQRSYDVGVASALDLRQAQTAVEGARATLAQYTRLVAQDQNALVLLLGSGIPANLPQGLGLDQTLLTEVPAGLPSDLLQRRPDILEAEHQLMAANASIGAARAAFFPSISLTANAGTMSRQLSGLFDAGSGSWLFQPSINLPIFTAGSLRASLDYAKIQKDINVAQYEKAIQTAFQEVADGLAARGTFTEQLQAQRDLVKASDEYYQLADKRYRTGVDNYLTLLDAQRSLFTAQQQLITDRLNQLTSEVNLYKALGGGWNQQTVTQQQTAKKEDPQA
notes: OprM (outer membrane factor), Pseudomonas aeruginosa, gene encoding full-length OprM; The full-length gene was expressed; also called OMF; outer membrane factor; source: E. coli C43(DE3), outer membranes solubilised with OG, purified (Ni-NTA, Superdex200, CYMAL-7)
B6: MexB, full length (natural protein)
chain: MSKFFIDRPIFAWVIALVIMLAGGLSILSLPVNQYPAIAPPAIAVQVSYPGASAETVQDTVVQVIEQQMNGIDNLRYISSESNSDGSMTITVTFEQGTDPDIAQVQVQNKLQLATPLLPQEVQRQGIRVTKAVKNFLMVVGVVSTDGSMTKEDLSNYIVSNIQDPLSRTKGVGDFQVFGSQYSMRIWLDPAKLNSYQLTPGDVSSAIQAQNVQISSGQLGGLPAVKGQQLNATIIGKTRLQTAEQFENILLKVNPDGSQVRLKDVADVGLGGQDYSINAQFNGSPASGIAIKLATGANALDTAKAIRQTIANLEPFMPQGMKVVYPYDTTPVVSASIHEVVKTLGEAILLVFLVMYLFLQNFRATLIPTIAVPVVLLGTFGVLAAFGFSINTLTMFGMVLAIGLLVDDAIVVVENVERVMAEEGLSPREAARKSMGQIQGALVGIAMVLSAVFLPMAFFGGSTGVIYRQFSITIVSAMALSVIVALILTPALCATMLKPIEKGDHGEHKGGFFGWFNRMFLSTTHGYERGVASILKHRAPYLLIYVVIVAGMIWMFTRIPTAFLPDEDQGVLFAQVQTPPGSSAERTQVVVDSMREYLLEKESSSVSSVFTVTGFNFAGRGQSSGMAFIMLKPWEERPGGENSVFELAKRAQMHFFSFKDAMVFAFAPPSVLELGNATGFDLFLQDQAGVGHEVLLQARNKFLMLAAQNPALQRVRPNGMSDEPQYKLEIDDEKASALGVSLADINSTVSIAWGSSYVNDFIDRGRVKRVYLQGRPDARMNPDDLSKWYVRNDKGEMVPFNAFATGKWEYGSPKLERYNGVPAMEILGEPAPGLSSGDAMAAVEEIVKQLPKGVGYSWTGLSYEERLSGSQAPALYALSLLVVFLCLAALYESWSIPFSVMLVVPLGVIGALLATSMRGLSNDVFFQVGLLTTIGLSAKNAILIVEFAKELHEQGKGIVEAAIEACRMRLRPIVMTSLAFILGVVPLAISTGAGSGSQHAIGTGVIGGMVTATVLAIFWVPLFYVAVSTLFKDEASKQQASVEKGQ
notes: MexB (RND transporter), Pseudomonas aeruginosa, full length; also called RND transporter; source: E. coli C43(DE3), membranes solubilised with DDM, purified (Ni-chelating Sepharose, Superdex200, CYMAL-7)

Experiments:
[1] = molecular target: B5; experiment: cryo-EM structure; MexA, MexB and OprM reconstituted in vitro, detergent replaced with amphipol A8-35, 50 mM HEPES-K pH 7.5; single-particle analysis; 0° and 60° states; without drug and with 10 mM novobiocin; conditions: both partners purified
[2] = molecular target: the molecule itself; experiment: as above
[3] = molecular target: B6; experiment: SEC; complex-formation experiment: MexA, MexB and OprM (wild type, or one of them mutated) mixed at 3:1:1 in buffer C, dialysed against buffer D (20 mM Na-citrate, 300 mM KCl, 0.02% CYMAL-7) at 4 °C, Superdex200 16/60, 0.5 mL/min; the read-out is the formation of the tripartite complex; conditions: both partners purified
[4] = molecular target: B5; experiment: as above; conditions: both partners purified

Binder	stoichiometry N [1] [MexA per OprM]	stoichiometry N [2]	binding result [3]	binding result [4]
B1	2	6		
B2			binds	binds
B3			binds	binds
B4				binds
B5		3		
B6		3		
